Measured values taken from the nanobody polyreactivity screen of Harvey et al. (2022).

Experiment: yeast display, Sf9 membrane polyspecificity reagent, FACS + sequencing; frameworks hold sequencing errors
Procedure, shortened: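 Nanobodies came from a synthetic yeast display library in Saccharomyces cerevisiae BJ5465, induced with galactose for 36–48 hours and stained for 1 hour at 4 °C with 10% biotinylated, detergent-solubilized Sf9 membrane reagent. Cells were enriched on streptavidin microbeads and then FACS-sorted, with low and high (top ~1%) gates set on anti-HA fluorescence for expression and streptavidin fluorescence for reagent binding. Each polyreactivity label reflects the gate a clone came from. Genes were amplified by colony PCR, sequenced by MiSeq 2 × 250 and filtered by CDR length.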

Question: For “QVQLVESGGGLVQAGGSLRLSCAASGLIFGNYAMGWYRQAPGKERELVAAITSTGITYYADSVKGRFTISRDNAKNTVYLQMNSLKPEDTAVYYCNADYYRHSLDYDYVGYDYWGQGTQVTVSS”, which “polyreactivity (PSR sort gate)” value is on record?
Answer: low polyreactivity

Question: For “QVQLVESGGGLVQAGGSLRLSCAASGLIFGRNARGWYRQAPGKERELVAVISKRGGSTYYADSVKGRFTISRDNAKNTVYLQMNSLKPADTAVYYCAADYGSTGNYWGQGTQVTVSS”, which “polyreactivity (PSR sort gate)” value is on record?
Answer: high polyreactivity

Question: Which “polyreactivity (PSR sort gate)” value does the source give for “QVQLVESGGGLVQAGGSLRLSCAASGLIFGRYAMGWYRQAPGKERELVAGISGSGGITYYADSVKGRFTISRDTAKNTVYLQMHILKPEDTAVYYCATAAASHKYGYWGQGTQVTVSS” here?
Answer: low polyreactivity

Question: For “QVQLVESGGGLVQAGGSLRLSCAASGLIFGRYTMGWYRQAPGKEREFVAAISRSGGSTYYADSVKGRFTISRDNAKITVYLQRNSLKPEDTAVYYCAARGSYTRPKRYGYWGQGTQVTVSS”, which “polyreactivity (PSR sort gate)” value is on record?
Answer: high polyreactivity

Question: Which “polyreactivity (PSR sort gate)” value does the source give for “QVQLVESGGGLVQAGGSLRLSCAASGLIFGVNAMGWYRQAPGKEMELVAAITSRGGSTYYADSVKGRFTISRDNAKNTVYLQMNSLKPEDTAVYYCAAKYAYYEPYSWRPQRTYNYWGQGTQVTVSS” here?
Answer: high polyreactivity

Question: For “QVQLVESGGGLVQAGGSLRLSCAASGLIFGVNAMGWYRQAPGKEREFVARITRSGSSTYYADSVKGRFTISRDNAKNTVYLQMNSLKPEDTAVYYCAVDLFYKYDWGQGTQVTVSS”, which “polyreactivity (PSR sort gate)” value is on record?
Answer: high polyreactivity

Question: For “QVQLVESGGGLVQAGGSLRLSCAASGLIFGVYAMGWYRQAPGKERELVAGISWRGSSTYYADSVKGRFTISRDNAKNTVYLQMNSLKPEDTAVYYCAAVRRPSRHAYGGTAVYYWGQGTQVTVSS”, which “polyreactivity (PSR sort gate)” value is on record?
Answer: high polyreactivity

Question: For “QVQLVESGGGLVQAGGSLRLSCAASGLIFGYNAMGWYRQAPGKERELVAAISRRGTSTYYADSVKGRFTISRDNAKNTVYLQMNSLKPEDTAVYYCATYGVNPPGVEEYNYWGQGTQVTVSS”, which “polyreactivity (PSR sort gate)” value is on record?
Answer: high polyreactivity

Question: With “QVQLVESGGGLVQAGGSLRLSCAASGLIFGYNAMGWYRQAPGKERELVASINWSTGRTRYADSVKGRFTISRDNAKNTVYLQMNSLKPEDTAVYYCAARLYNPYPYEYWGQGTQVTVSS” as the sequence, how does the “polyreactivity (PSR sort gate)” value read?
Answer: high polyreactivity

Question: With “QVQLVESGGGLVQAGGSLRLSCAASGLIFIGYAKGWSRQAPGKERELVASIRGVGSTNYADSVKGRFTISRDNAKNTVYLQMHSLKPEDTAVYYCATSVDRALYTQTRGDYDYWGQGTQVTVSS” as the sequence, how does the “polyreactivity (PSR sort gate)” value read?
Answer: low polyreactivity

Question: Which “polyreactivity (PSR sort gate)” value does the source give for “QVQLVESGGGLVQAGGSLRLSCAASGLIFIRYAMGWYRQAPGKERELVAAISWPGGNTYYADSVKGRFTISRDNAKNTVYLQMNSLKPEDTAVYYCAAVGTWQHRSYGYWGQGTQVTVSS” here?
Answer: high polyreactivity

Question: For “QVQLVESGGGLVQAGGSLRLSCAASGLIFISYAMGWYRQAPGKERELVAAITSTVGGTYYADSVKGRFTISRDNAKNTVYLQMNSLQPEDTAVYYCAKEVWTWGPYYYWGQGTQVTVSS”, which “polyreactivity (PSR sort gate)” value is on record?
Answer: low polyreactivity

Question: Which “polyreactivity (PSR sort gate)” value does the source give for “QVQLVESGGGLVQAGGSLRLSCAASGLIFKYNVMGWYRQAPGKERELVAAITWGGTRTYYADSVKGRFTISRDNAKNTVYLQMNSLKPEDTAVYYCAVRSARIERNYWGQGTQVTVSS” here?
Answer: low polyreactivity

Question: With “QVQLVESGGGLVQAGGSLRLSCAASGLIFLQYGLGWYRQAPGKERALVAAITTRGGRTYYADSVKGRFTISRDNANNTVYLQMNSLKPEDTAVYYCAADSEQDNLRYYRWVWYYYWGQGTQVTVSS” as the sequence, how does the “polyreactivity (PSR sort gate)” value read?
Answer: low polyreactivity

Question: With “QVQLVESGGGLVQAGGSLRLSCAASGLIFLQYVMGWYRQAPGKEREFVATITDDGDTTYYADSVKGRFTISRDNAKNTVYLQMNSLKPEDTAVYYCAARYVPVYYWDYPYDYWGQGTQVTVSS” as the sequence, how does the “polyreactivity (PSR sort gate)” value read?
Answer: low polyreactivity

Question: With “QVQLVESGGGLVQAGGSLRLSCAASGLIFNKYTMGWYRQAPGTERELVAAISKSGGSTYYADSVKGRFTISRDNAKNTVYLQMNSLKPEDTAVYYCNRVTHYIRFDYWGQGTQVTGSS” as the sequence, how does the “polyreactivity (PSR sort gate)” value read?
Answer: low polyreactivity

Question: With “QVQLVESGGGLVQAGGSLRLSCAASGLIFPCYDMGWYRQAPGKERELVAAISDSGANTYYADSVKGRFTISRDNAKNTVYFQMNSLKPEDTAVYYCAAESSWWYGTSFGRFDYWGQGTQVTVSS” as the sequence, how does the “polyreactivity (PSR sort gate)” value read?
Answer: low polyreactivity

Question: With “QVQLVESGGGLVQAGGSLRLSCAASGLIFPDYDMGWYIQAPGKERELVAAISIGGVSTYYADSVKGRFTISRDNAKNTVYLQMNSLKPEDTAVYYCAAYYSYVYYVGDSDDYWGQGTQVTVSS” as the sequence, how does the “polyreactivity (PSR sort gate)” value read?
Answer: low polyreactivity

Question: For “QVQLVESGGGLVQAGGSLRLSCAASGLIFPIYTMGWYRQAPGKERELVAAISSRGGSTYYADSVKGRFTISRDNAKNTVYLQMNSLKPEDTAVYYFGSYDYSGQGTQVTVSS”, which “polyreactivity (PSR sort gate)” value is on record?
Answer: high polyreactivity

Question: Which “polyreactivity (PSR sort gate)” value does the source give for “QVQLVESGGGLVQAGGSLRLSCAASGLIFPQYAMGWYRQAPGKERELVAAISLSGTSTNYADSVKGRFTISRDNAKNTVYLQMNSLKPEDTAVYYCLADQRITQSVELEYDSWGQGSQVTVSS” here?
Answer: low polyreactivity

Question: Which “polyreactivity (PSR sort gate)” value does the source give for “QVQLVESGGGLVQAGGSLRLSCAASGLIFPRYAMGWYRQAPGKERELVAAITRGGSTYYADSVKGRFTISRDNAKNTVYLQMNSLKPEDTAVYYCNAELPVHWSWYDYWGQGTQVTVSS” here?
Answer: low polyreactivity

Question: With “QVQLVESGGGLVQAGGSLRLSCAASGLIFPRYAMGWYRQAPGKERELVAAITSRAGSTYYADSVKGRFTISRDNAKNTVYLQMNSLKPEDTAVYYCAAVSDGWDGDMYYWGQGTQVTVSS” as the sequence, how does the “polyreactivity (PSR sort gate)” value read?
Answer: low polyreactivity

Question: With “QVQLVESGGGLVQAGGSLRLSCAASGLIFPRYAMGWYRQAPGKERELVAAITSRAGSTYYADSVKGRFTISRDNAKNTVYLQMNSLKPEDTAVYYCAAVSDGWDGDMYYWGQVTQVTVSS” as the sequence, how does the “polyreactivity (PSR sort gate)” value read?
Answer: low polyreactivity

Question: With “QVQLVESGGGLVQAGGSLRLSCAASGLIFPSYAMGWYRQAPGKERELVAAITFSGSDTNYADSVKGRFTISRDNAKNTVYLQMNSLKPEDTAVYYCAAAYFDFWGWLHDYWGQGTQVTVSS” as the sequence, how does the “polyreactivity (PSR sort gate)” value read?
Answer: low polyreactivity

Question: With “QVQLVESGGGLVQAGGSLRLSCAASGLIFPVYDMAWYRQAPGKERELVAAITRSGDSTYYADSVKGRFTISRDNAKNTVYLQMNSLKPEDSGVYYCAAQPGTASYAGDGDSWGKGTQVTVSS” as the sequence, how does the “polyreactivity (PSR sort gate)” value read?
Answer: low polyreactivity

Question: With “QVQLVESGGGLVQAGGSLRLSCAASGLIFPYNAMGWYRQAPGKERELVAAIDSGVTTYYADSVKGRFTISRDNAKNTVYLQMNSLKPEDTAVYFCAADGLPGPEGDSWGQGTQVSVSS” as the sequence, how does the “polyreactivity (PSR sort gate)” value read?
Answer: low polyreactivity

Question: With “QVQLVESGGGLVQAGGSLRLSCAASGLIFPYYVKVWYRQAPGKERELVAAISWNGSSTYYADSVKGRFTISRDNAKNTVYLQMNSLKPEDTAVYYCAASYGYFEDYGYWGQGTQVTVSS” as the sequence, how does the “polyreactivity (PSR sort gate)” value read?
Answer: low polyreactivity

Question: Which “polyreactivity (PSR sort gate)” value does the source give for “QVQLVESGGGLVQAGGSLRLSCAASGLIFQEYAMGWYRQAPGKERELVAAITSGDSTNYADSVKGRFTISRDNAKNTVYLQMNSLKPEDTAVYYCNVDEAYYFVGEDNYDYWGQGTQVTVSS” here?
Answer: low polyreactivity

Question: With “QVQLVESGGGLVQAGGSLRLSCAASGLIFQVYDMGWYRQAPGKERELVAAISSGSNTNYADSVKGRFTISRDNAKNTVYLQMNSLKPEDTAVYYCAAGLYLQGPFDYWGQGTQVTVSS” as the sequence, how does the “polyreactivity (PSR sort gate)” value read?
Answer: low polyreactivity

Question: Which “polyreactivity (PSR sort gate)” value does the source give for “QVQLVESGGGLVQAGGSLRLSCAASGLIFQVYDMGWYRQAPGKERELVAAISSGSNTNYADSVKGRFTISRDNAKNTVYLQMNSRKPEDTAVYYCAASWGYGALTPDMGYWGQGTQVTVSS” here?
Answer: low polyreactivity

Question: For “QVQLVESGGGLVQAGGSLRLSCAASGLIFRGNAMGWYRQAPGKERELVAGITRGGSTYYADSVKGRFTISRDNAKNTVYLQMNSLKPEDTAVYYCAAAFRDGFTRRYGYWGQGTQVTVSS”, which “polyreactivity (PSR sort gate)” value is on record?
Answer: high polyreactivity

Question: With “QVQLVESGGGLVQAGGSLRLSCAASGLIFRGYAMGWYRQAPGKERELVAAISTTGGSTFYADSVKGRFTISRDNAKNTVYLQMNSLKREDTAVYYCNADWAPTGFSGGYPYDYWGQGTQVTVSS” as the sequence, how does the “polyreactivity (PSR sort gate)” value read?
Answer: high polyreactivity

Question: With “QVQLVESGGGLVQAGGSLRLSCAASGLIFRGYAMGWYRQAPGKERELVAVISSSGGITRYADSVKGRFTISRDNAKNTVYLQMNSLKPEDTAVSYCATDRAERTGYTRYVKTYNYWGQGTQVTVSS” as the sequence, how does the “polyreactivity (PSR sort gate)” value read?
Answer: low polyreactivity

Question: For “QVQLVESGGGLVQAGGSLRLSCAASGLIFRGYTMGWYRQAPGKEREFVAAITRRGTSTYYADSVKGRFTISRDNAKNTVYLQMNSLKPEDTAVYYCAARSVSGPRGYPYDYWGQGTQVTVSS”, which “polyreactivity (PSR sort gate)” value is on record?
Answer: high polyreactivity

Question: Which “polyreactivity (PSR sort gate)” value does the source give for “QVQLVESGGGLVQAGGSLRLSCAASGLIFRPYAMGWYRQAPGKERELVAALTSGGSTDYADSVKGRFTISRDNAKNTVYLQMNSLKPEDTAVYYCNADIYPHDGYPWQGDYDYWGQGTQVTVSS” here?
Answer: low polyreactivity

Question: For “QVQLVESGGGLVQAGGSLRLSCAASGLIFRRYAMGWYRQAPGKERELVAAISRTGGTTYYADSVKGRFTISRDTAKNTVYLQMNSLKPEDTAVYYCAAAGQGPDYDYWGQGTQVSVSS”, which “polyreactivity (PSR sort gate)” value is on record?
Answer: high polyreactivity

Question: Which “polyreactivity (PSR sort gate)” value does the source give for “QVQLVESGGGLVQAGGSLRLSCAASGLIFRRYVMGWYRQAPGKERELVAAITSRGTRTYYADSVKGRFTISRDNAKNTVYLQMNSLKPEDTAVYYCAADGGISAGANSGYDYWGQGTQVTVSS” here?
Answer: high polyreactivity

Question: For “QVQLVESGGGLVQAGGSLRLSCAASGLIFRVYAMGWYRQAPGKERELVAAITWSDGSTYYADSVKGRFTISRDNAKNTVYLQMNSLKPEDTAVYYCAAEFWYDWDYDYYYWGQGTQVTVSS”, which “polyreactivity (PSR sort gate)” value is on record?
Answer: high polyreactivity

Question: Which “polyreactivity (PSR sort gate)” value does the source give for “QVQLVESGGGLVQAGGSLRLSCAASGLIFRYNAMGWYRQAPGKERELVAAISRSGGTTYYADSVKGRFTISRDNAKNTVYLQMNSLKPEDTAVYYCATRISQSYYNYGYWGQGTQVTVSS” here?
Answer: high polyreactivity

Question: Which “polyreactivity (PSR sort gate)” value does the source give for “QVQLVESGGGLVQAGGSLRLSCAASGLIFRYNAMGWYRQAPGKERELVASITSDGSTNYADSVKGRFTISRDNAKNTVYLQMNSLKPEDTAVYYCAADGYTYCYYQLIPDYDYWGQGTQVTVSS” here?
Answer: low polyreactivity

Question: Which “polyreactivity (PSR sort gate)” value does the source give for “QVQLVESGGGLVQAGGSLRLSCAASGLIFRYYAKGWYRQGPGNEMELVAVISRRGDSTYYADSVKVRFTISRDNAKNTVYLQMISLKPEDTAVFYCAAEYFKRYKSYEYWGQGTQVTVSS” here?
Answer: high polyreactivity
